The record followed here is patent US20190328867A1 (EMORY UNIVERSITY, published 2019).

The assay has as its target T1, varicella-zoster virus glycoprotein H (varicella-zoster virus, UniProt P09260 18-841, limits assumed).
T1 sequence (looked up): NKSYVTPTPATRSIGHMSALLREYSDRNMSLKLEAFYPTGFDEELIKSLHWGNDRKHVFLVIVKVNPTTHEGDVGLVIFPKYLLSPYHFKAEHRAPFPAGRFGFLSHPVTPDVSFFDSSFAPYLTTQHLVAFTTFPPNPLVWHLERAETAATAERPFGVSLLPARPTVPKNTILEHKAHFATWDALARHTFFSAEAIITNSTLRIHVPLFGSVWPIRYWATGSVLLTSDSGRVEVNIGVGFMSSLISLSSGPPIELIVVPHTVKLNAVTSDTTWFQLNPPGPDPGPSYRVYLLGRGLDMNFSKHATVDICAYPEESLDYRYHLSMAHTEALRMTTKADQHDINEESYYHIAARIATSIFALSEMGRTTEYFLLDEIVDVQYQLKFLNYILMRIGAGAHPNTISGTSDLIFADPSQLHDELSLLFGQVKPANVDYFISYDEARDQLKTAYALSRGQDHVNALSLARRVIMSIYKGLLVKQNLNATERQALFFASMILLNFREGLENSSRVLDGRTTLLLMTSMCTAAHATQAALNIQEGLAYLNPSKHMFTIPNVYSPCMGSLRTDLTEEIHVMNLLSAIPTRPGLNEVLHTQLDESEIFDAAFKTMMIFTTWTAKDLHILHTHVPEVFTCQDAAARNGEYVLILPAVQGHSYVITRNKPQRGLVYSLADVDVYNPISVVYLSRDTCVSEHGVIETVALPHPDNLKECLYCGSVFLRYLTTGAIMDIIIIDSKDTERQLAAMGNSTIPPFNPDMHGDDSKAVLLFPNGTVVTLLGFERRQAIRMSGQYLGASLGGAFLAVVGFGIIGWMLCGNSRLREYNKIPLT
Description: cell-based or functional assay.

B1: RM-2D6 (antibody, IgG1, V domains shown)
VH: EVQLVESGGGVVQPGRSLRLSCAASGFMFSSYGMHWVRQAPGKGLEWVAAVSHDGTNDLYADSVKGRFSISRDNSKNTLYLQMNSLRAEDTAVYYCAKTSWARFLEWTFDYWGQGTLVTVSS
VL: DIQMTQSPSSLSASVGDRVTITCRASQSINRYLNWYQQKPGKAPKLLIYGASSLQSGVPLRFSGSGSGTDFTLTISSLQPEDFATYYCQQSHSTPTFGQGTRLEIK
For the molecule B1, the “In vitro neutralization IC50 (with complement)” value worked out at 0.03 µg/mL and the “In vitro neutralization IC50 (without complement)” value was determined as 0.23 µg/mL.

B2: 302-1G9 (antibody, IgG1, V domains shown)
VH: QVQLVQSGAEVKKPGASVKVSCEAFGYTFSNYGFTWVRQAPGQGLEWMGWISASNANTKYGQKFRGRVTLTTDTSTSTAYMELRNLGYDDTAMYYCARDRGGSLAMVVGLDHWGQGTLVTVSS
VL: DIQMTQSPTSLSASVGDRVTITCRASQSIGGYLNWYQQNPGKAPKLLIYAASTLQRGVPSRFSGGGSGTDFTLTITSLQPEDFATYYCQQCYSAELTFGGGTKVEIK
For the molecule B2, the “In vitro neutralization IC50 (with complement)” value was 0.06 µg/mL and the “In vitro neutralization IC50 (without complement)” value worked out at 0.09 µg/mL.
